Data: EP3573716B1, “BIOLOGICALLY ACTIVE FUSION PEPTIDE FOR USE IN THE TREATMENT OF SPINAL MUSCULAR ATROPHY (SMA)” (Istituti Clinici Scientifici Maugeri Spa Società Benefit, priority 2017, dated 2026)

Experiments:
[1] = test system: Smn knock-down NSC-34 motor neuronal cells (sh_Smn_519-FM5S clone); experiment: Neuritogenesis and neurite outgrowth (morphometric analysis, β-tubulin III immunostaining) in Smn knock-down motor neuronal cells; type: cell-based, mouse
Procedure: (§1) The psiRNA-hH1neo G2 (InvivoGen) and sh_Smn_519 (Shafey et al. Hypomorphic Smn knockdown C2C12 myoblasts reveal intrinsic defects in myoblast fusion and myotube morphology, 2005, Exp Cell Res 311:49-61) constructs were transfected into the NSC-34 cells using FuGENE HD Transfection Reagent (Promega) according to the manufacturer's instructions. Forty-eight hours after the transfection, cells were subject to drug selection with 1 mg/ml G418 (Sigma-Aldrich) to obtain stably transfected cell lines. Two weeks after the transfection, single clones were picked and expanded in a DMEM/10% FBS/G418-based medium to obtain the psiRNA and sh_Smn_519 NSC-34 clonal cell lines, respectively. To induce differentiation, clones were maintained in culture with differentiation medium (DMed) (1:1 DMEM plus Ham's F12, 1% FBS, 1% penicillin/streptomycin, and 1% modified Eagle's medium nonessential amino acids; see 48).
Twenty-four hours after plating, psiRNA and sh_Smn_519 NSC-34 stable clones were treated with various concentrations of transducible fusion protein/peptide (3 hours). Protein/peptide in excess were subsequently removed and cells were maintained in culture in DMed for 24 and 48 hours. Cells were then fixed and stained, as described below. Neurite outgrowth and/or cell death were subsequently analyzed (see "Immunocytochemistry") .
For immunostaining, cells were incubated for 1 hour with a blocking/permeabilizing solution (5% Serum, 0.1% Triton X-100, in PBS) at room temperature. To evaluated neurite outgrowth, cells were immunostained using a mouse antibody to β-tubulin isotype III (Sigma-Aldrich). Neurite length was measured according to a protocol previously established in our laboratory using ImageJ software (National Institutes of Health) and NeuronJ plug-in. Briefly, only processes as long as twofold the average cell body dimension were considered neurites and measured. […] A total of about 100 cells per group were analyzed. […]

[2] = test system: Smn knock-down NSC-34 motor neuronal cells (sh_Smn_519-FM5S clone); experiment: Apoptotic cell death (cells with condensed nuclei, Hoechst 33342) in Smn knock-down motor neuronal cells; type: cell-based, mouse; settings: 48 hours after the switch to DMed
Procedure: as §1, with “To induce differentiation, clones were maintained in culture with differentiation medium (DMed) (1:1 DMEM plus Ham's F12, 1% FBS, 1% penicillin/streptomycin, and 1% modified Eagle's medium nonessential amino acids; see 48).” left out
Twenty-four hours after plating, psiRNA and sh_Smn_519 NSC-34 stable clones were treated with various concentrations of transducible fusion protein/peptide (3 hours). […] Neurite outgrowth and/or cell death were subsequently analyzed (see "Immunocytochemistry") .
Cells were rinsed in phosphate-buffered saline (PBS) and fixed in 4% PFA for 20 min. […] The number of cells showing condensed nuclei was counted as previously described.
Subsequently, the neuroprotective activity of the two peptides was evaluated. […] Forty-height hours after the switch to DMed, the impact of the two TAT48-57-fusion peptides towards cell death was determined in terms of reduction in the number of cells with condensed nuclei. […]

B1: TAT48-57-SMN^235-294: fusion peptide of carrier peptide TAT48-57 (SEQ ID NO: 1) and SMN^235-294 carboxy-terminal domain (SEQ ID NO: 29) as active peptide portion (peptide, listed as Homo sapiens)
chain: GRKKRRQRRRPFPSGPPIIPPPPPICPDSLDDADALGSMLISWYMSGYHTGYYMGFRQNQKEGRCSHSLN
modifications: HIV-1; Fragment of the full-length human SMN protein, i.e. the SMN235-294 carboxy-terminal domain
With B1 the “diminished the number of sh_Smn_519-FM5S cells without neurites” value ([1]; 10 nM, versus untreated sh_SMN_519-FM5S cells, 24 hours after the switch to DMed) was roughly 40%, the “concentration with significant effect on number of cells without neurites and mean length of the longest neurite per cell” value ([1]; sh_Smn_519-FM5S clone, 3 hours pre-incubation, then differentiating conditions (DMed)) was “above 10 nM” and the “increased the mean length of the longest neurite per cell” value ([1]; sh_Smn_519-FM5S clone, apparently 10 nM, versus untreated cells, 24 hours after the switch to DMed) was 30%. The “diminished the number of cells with condensed nuclei” value ([2]; 100 nM, sh_Smn_519-FM5S cells, versus untreated cells) was roughly 45% and the “concentrations significantly protective towards apoptotic cell death” value ([2]; sh_SMN_519-FM5S cells) was 1 to 100 nM.
